± gives the standard error. Fewer inactive variants are shown than the library holds.
B1: glmS ribozyme (parent)
chain: AUAAAAGCGCCAGAACUACAGAAAUGUAGUUGACGAGGAGGAGGUUUAUCGAAUUUUCGGCGGAUGCCUCCAAA

Legend:
Details in all cases: with glucosamine-6-phosphate
[1] = variants of: B1; experiment: self-cleavage kobs at 160 uM GlcN6P; higher = faster cleavage; RNA array
Procedure, shortened: (§1)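 Glucosamine-6-phosphate in HEPES/KCl/Mg(OAc)2 buffer, at 40 μM to 10 mM, was flowed over barcoded ribozyme variants transcribed in situ by E. coli RNA polymerase on sequenced MiSeq chips. Tracking was through a hybridised Cy3 probe at 37 °C. kobs, kcat and KM came from exponential decay fits and weighted Michaelis–Menten fits of normalised per-tile medians.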

[2] = variants of: B1; experiment: self-cleavage kobs at 640 uM GlcN6P; higher = faster cleavage; RNA array
Procedure, shortened: as §1

[3] = variants of: B1; experiment: self-cleavage kobs at 2500 uM GlcN6P; higher = faster cleavage; RNA array
Procedure, shortened: as §1

[4] = variants of: B1; experiment: self-cleavage kobs at 40 uM GlcN6P; higher = faster cleavage; RNA array
Procedure, shortened: as §1

[5] = variants of: B1; experiment: self-cleavage kobs at 10000 uM GlcN6P; higher = faster cleavage; RNA array
Procedure, shortened: as §1

Row | Variant | self-cleavage kobs at 160 uM GlcN6P [1] [s⁻¹] | self-cleavage kobs at 640 uM GlcN6P [2] [s⁻¹] | self-cleavage kobs at 2500 uM GlcN6P [3] [s⁻¹] | self-cleavage kobs at 40 uM GlcN6P [4] [s⁻¹] | self-cleavage kobs at 10000 uM GlcN6P [5] [s⁻¹]
1 | G7U G13U A15U G40C G41A A52U | < 1e-05 | < 1e-05 | < 1e-05 | – | –
2 | G7U G41U A53G | < 1e-05 | – | < 1e-05 | – | –
3 | C8G C11G C16G C34A | < 1e-05 | – | < 1e-05 | – | –
4 | G51A U55G C68G | – | – | – | < 1e-05 | < 1e-05
5 | G7C U31G | < 1e-05 | – | < 1e-05 | – | < 1e-05
6 | U55A U56G | 0.000454 ± 8.8e-05 | 0.00368 ± 0.00046 | 0.00771 ± 0.0013 | 0.000292 ± 4.8e-05 | 0.0097 ± 0.0019
7 | U55A U56C | 0.000191 ± 3e-05 | 0.000919 ± 0.00017 | 0.00258 ± 0.00063 | 0.00013 ± 2.5e-05 | 0.00781 ± 0.0012
8 | G51U G62U | < 1e-05 | – | – | < 1e-05 | < 1e-05
9 | G51A G63U | – | – | – | < 1e-05 | < 1e-05
10 | A48U C50U A52C G63C C71U | – | – | – | < 1e-05 | –
11 | G7C G13U A42G | < 1e-05 | – | – | – | < 1e-05
12 | G7U U30C G32A | < 1e-05 | – | – | – | < 1e-05
13 | A6G G32U G40A C61G | < 1e-05 | < 1e-05 | < 1e-05 | – | –
14 | C8G C34G A52G | < 1e-05 | < 1e-05 | – | – | –
15 | C8A C34U G40U G41U U45A G62U | < 1e-05 | – | – | – | –
16 | G51C A52G | < 1e-05 | – | < 1e-05 | < 1e-05 | < 1e-05
17 | C58A A64U | – | – | < 1e-05 | < 1e-05 | < 1e-05
18 | U55A C67G | 0.000104 ± 2.1e-05 | 0.000179 ± 2.8e-05 | 0.00013 ± 2e-05 | 0.000126 ± 3.4e-05 | 0.00061 ± 0.00014
19 | C8A C50U U55C | < 1e-05 | < 1e-05 | – | – | –
20 | U54G C67A | 0.000481 ± 9.8e-05 | 0.000916 ± 0.00018 | 0.00208 ± 0.00067 | 0.000326 ± 7.1e-05 | 0.00623 ± 0.0012
21 | C50G C68A | 0.000228 ± 3.1e-05 | 0.000137 ± 2.4e-05 | 0.000116 ± 2.1e-05 | 7.16e-05 ± 9.2e-06 | 7.83e-05 ± 8.2e-06
22 | C68G | – | 0.000523 ± 0.00014 | 9.11e-05 ± 1.8e-06 | 1.18e-05 ± 2.8e-06 | 0.000473 ± 9.9e-05
23 | C68A | 5.51e-05 ± 1.8e-05 | 0.000539 ± 0.00015 | 0.000102 ± 4.6e-05 | < 1e-05 | 0.000447 ± 7.5e-05

Row | Variant | self-cleavage kobs at 160 uM GlcN6P [1] [s⁻¹] | self-cleavage kobs at 640 uM GlcN6P [2] [s⁻¹] | self-cleavage kobs at 2500 uM GlcN6P [3] [s⁻¹] | self-cleavage kobs at 40 uM GlcN6P [4] [s⁻¹] | self-cleavage kobs at 10000 uM GlcN6P [5] [s⁻¹]
24 | A48G U49C | < 1e-05 | < 1e-05 | < 1e-05 | < 1e-05 | < 1e-05
25 | G60C U69C | – | – | – | < 1e-05 | < 1e-05
26 | G60C U69G | < 1e-05 | – | – | < 1e-05 | < 1e-05
27 | A6U C11A | < 1e-05 | < 1e-05 | < 1e-05 | – | –
28 | G7C G37U | < 1e-05 | < 1e-05 | < 1e-05 | – | –
29 | C58A G59U G60U | – | – | – | < 1e-05 | < 1e-05
30 | C50A A64G C71U | – | – | – | < 1e-05 | –
31 | A48U A52U C67A | – | – | – | < 1e-05 | < 1e-05
32 | G7U C67A | < 1e-05 | < 1e-05 | – | – | –
33 | G60U U65A | < 1e-05 | < 1e-05 | < 1e-05 | < 1e-05 | < 1e-05
34 | A53G C70U | 0.00129 ± 0.00027 | 0.0139 ± 0.0036 | – | 0.00158 ± 0.00015 | 0.0616 ± 0.014
35 | G51A G60C | – | < 1e-05 | – | < 1e-05 | –
36 | A6C U49G G62A A64G | < 1e-05 | < 1e-05 | < 1e-05 | – | –
37 | U49G U57A | – | < 1e-05 | – | < 1e-05 | –
38 | C58U G60A | – | < 1e-05 | < 1e-05 | < 1e-05 | < 1e-05
39 | C8G C11A | < 1e-05 | < 1e-05 | < 1e-05 | – | < 1e-05
40 | U54A C61U G62A | – | < 1e-05 | – | < 1e-05 | < 1e-05
41 | A48G G60C C61G | – | – | – | < 1e-05 | –
42 | G7U C8U A12G G51C C61U | < 1e-05 | < 1e-05 | – | – | –
43 | C8G G44A | < 1e-05 | < 1e-05 | < 1e-05 | – | < 1e-05
44 | C8G G44C | < 1e-05 | < 1e-05 | < 1e-05 | – | < 1e-05
45 | G62C C67G | – | < 1e-05 | < 1e-05 | < 1e-05 | < 1e-05
46 | U49A G51A U57A C58G | – | – | – | < 1e-05 | < 1e-05

Row | Variant | self-cleavage kobs at 160 uM GlcN6P [1] [s⁻¹] | self-cleavage kobs at 640 uM GlcN6P [2] [s⁻¹] | self-cleavage kobs at 2500 uM GlcN6P [3] [s⁻¹] | self-cleavage kobs at 40 uM GlcN6P [4] [s⁻¹] | self-cleavage kobs at 10000 uM GlcN6P [5] [s⁻¹]
47 | C50U A64U | < 1e-05 | – | – | < 1e-05 | < 1e-05
48 | C8A G29C G32C | < 1e-05 | – | – | – | –
49 | G62U C67G | – | < 1e-05 | – | < 1e-05 | < 1e-05
50 | A6G C8G U31A G32U | < 1e-05 | – | – | – | –
51 | U56A G59C | < 1e-05 | < 1e-05 | < 1e-05 | < 1e-05 | < 1e-05
52 | C8A A14U | < 1e-05 | < 1e-05 | < 1e-05 | – | –
53 | C8G A33C A48C U69G | < 1e-05 | – | < 1e-05 | – | –
54 | A6G G7C C10U G35U G40U G60A C70G | < 1e-05 | < 1e-05 | < 1e-05 | – | –
55 | C8A A33U A64G C67U C71G | < 1e-05 | – | – | – | –
56 | U55G C68U | 0.00035 ± 8.1e-05 | 0.00158 ± 0.00035 | 0.000382 ± 8.7e-05 | 0.000294 ± 3.6e-05 | 0.00508 ± 0.00094
57 | A6C A36G C50U C67U | < 1e-05 | – | < 1e-05 | – | –
58 | A6U A48C U57G | < 1e-05 | – | – | – | –
59 | C50G U65A | 6.9e-05 ± 3e-05 | 0.00136 ± 0.00038 | 0.000972 ± 0.00037 | 6.61e-05 ± 1.9e-05 | –
60 | A6G C10U U57C | < 1e-05 | – | – | – | –
61 | A6G C16G G40A C50U C70G | < 1e-05 | < 1e-05 | < 1e-05 | – | < 1e-05
62 | A48U G62U | < 1e-05 | < 1e-05 | < 1e-05 | < 1e-05 | < 1e-05
63 | C8G G32U C58U | < 1e-05 | < 1e-05 | – | – | –
64 | A52U C58U | < 1e-05 | < 1e-05 | < 1e-05 | < 1e-05 | < 1e-05
65 | C8G G40C U49C C61A | < 1e-05 | < 1e-05 | < 1e-05 | – | –
66 | A1U U2A G63A | < 1e-05 | – | – | – | –
67 | C8G C61A C68U | < 1e-05 | – | – | – | –
68 | A53U U54G C71A | – | – | – | 9.49e-05 ± 2.8e-05 | 0.00478 ± 0.0013
69 | A48C G51A | < 1e-05 | < 1e-05 | < 1e-05 | < 1e-05 | < 1e-05

Row | Variant | self-cleavage kobs at 160 uM GlcN6P [1] [s⁻¹] | self-cleavage kobs at 640 uM GlcN6P [2] [s⁻¹] | self-cleavage kobs at 2500 uM GlcN6P [3] [s⁻¹] | self-cleavage kobs at 40 uM GlcN6P [4] [s⁻¹] | self-cleavage kobs at 10000 uM GlcN6P [5] [s⁻¹]
70 | G51C U55A | – | < 1e-05 | – | < 1e-05 | –
71 | A6C A12G C68G C70G | < 1e-05 | < 1e-05 | < 1e-05 | – | –
72 | U49C A52U | < 1e-05 | < 1e-05 | < 1e-05 | < 1e-05 | < 1e-05
73 | G7A G37A | < 1e-05 | < 1e-05 | – | – | < 1e-05
74 | C8G G38A C58G C67G | 0.000186 ± 5e-05 | 0.000538 ± 0.00013 | 0.000435 ± 0.00014 | – | –
75 | A53U U54C C67A | – | – | – | 0.000138 ± 2.9e-05 | 0.00429 ± 0.0016
76 | C50U G51A | – | < 1e-05 | < 1e-05 | < 1e-05 | < 1e-05
77 | A6G A14G C16U G32U G35C G41C C50A C71G | < 1e-05 | – | < 1e-05 | – | –
78 | A6G U30G G59U | < 1e-05 | < 1e-05 | < 1e-05 | – | –
79 | U55G U57G | – | 5.98e-05 ± 2.6e-05 | – | < 1e-05 | 5.12e-05 ± 1.3e-05
80 | G7C C34U | < 1e-05 | < 1e-05 | < 1e-05 | – | < 1e-05
81 | G7C C8G A52G | < 1e-05 | < 1e-05 | < 1e-05 | – | –
82 | A53U C61U | < 1e-05 | – | – | < 1e-05 | –
83 | C61U A64G C70G | – | – | – | < 1e-05 | –
84 | A52C G60A G66A | < 1e-05 | < 1e-05 | – | < 1e-05 | –
85 | U54A C67A | 0.000242 ± 4.9e-05 | 0.00148 ± 0.00034 | 0.00137 ± 0.00037 | 0.000554 ± 0.00013 | 0.00561 ± 0.0016
86 | A48C G59U C67A | – | – | – | < 1e-05 | –
87 | C8A G13U | < 1e-05 | < 1e-05 | < 1e-05 | – | < 1e-05
88 | G7A U30G | < 1e-05 | – | < 1e-05 | – | –
89 | A6U A42U C61G | < 1e-05 | – | – | – | –
90 | G51A U57G | < 1e-05 | – | < 1e-05 | < 1e-05 | –
91 | U55A A64U C68U | – | – | – | < 1e-05 | –

Reference: the supplement of paper PMC7125110
